Data: patent US20230322950A1
One block for each substance: values may come before it.

Key:
[1] = target: VH1VL1-CD8ATD-CD137CSD-CD3zSSD fusion
[2] = target: VH2VL1-CD8ATD-CD137CSD-CD3zSSD fusion
[3] = target: VH3VL1-CD8ATD-CD137CSD-CD3zSSD fusion
[4] = target: VL1VH3-CD8ATD-CD137CSD-CD3zSSD fusion
[5] = target: VH2VL1-CD8ATD-CD137CSD-CD3zSSD fusion; remark: listed apart in the source
[6] = target: VL1VH3-CD8ATD-CD137CSD-CD3zSSD fusion; remark: listed apart in the source
[7] = target: VH1VL1-CD8ATD-CD137CSD-CD3zSSD fusion; remark: listed apart in the source
[8] = target: VH2VL1-CD8ATD-CD137CSD-CD3zSSD fusion; remark: listed apart in the source
[9] = target: VH3VL1-CD8ATD-CD137CSD-CD3zSSD fusion; remark: listed apart in the source
[10] = target: VL1VH3-CD8ATD-CD137CSD-CD3zSSD fusion; remark: listed apart in the source

Chain of VL1VH3-CD8ATD-CD137CSD-CD3zSSD fusion (chain, as listed by the source): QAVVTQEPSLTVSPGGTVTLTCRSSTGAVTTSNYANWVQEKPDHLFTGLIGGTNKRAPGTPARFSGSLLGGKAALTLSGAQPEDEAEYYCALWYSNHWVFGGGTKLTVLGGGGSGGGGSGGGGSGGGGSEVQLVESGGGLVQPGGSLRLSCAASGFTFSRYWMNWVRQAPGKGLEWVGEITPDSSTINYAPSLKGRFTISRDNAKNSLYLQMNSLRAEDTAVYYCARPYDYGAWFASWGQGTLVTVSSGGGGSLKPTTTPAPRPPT
Chain of VH2VL1-CD8ATD-CD137CSD-CD3zSSD fusion (chain, as listed by the source): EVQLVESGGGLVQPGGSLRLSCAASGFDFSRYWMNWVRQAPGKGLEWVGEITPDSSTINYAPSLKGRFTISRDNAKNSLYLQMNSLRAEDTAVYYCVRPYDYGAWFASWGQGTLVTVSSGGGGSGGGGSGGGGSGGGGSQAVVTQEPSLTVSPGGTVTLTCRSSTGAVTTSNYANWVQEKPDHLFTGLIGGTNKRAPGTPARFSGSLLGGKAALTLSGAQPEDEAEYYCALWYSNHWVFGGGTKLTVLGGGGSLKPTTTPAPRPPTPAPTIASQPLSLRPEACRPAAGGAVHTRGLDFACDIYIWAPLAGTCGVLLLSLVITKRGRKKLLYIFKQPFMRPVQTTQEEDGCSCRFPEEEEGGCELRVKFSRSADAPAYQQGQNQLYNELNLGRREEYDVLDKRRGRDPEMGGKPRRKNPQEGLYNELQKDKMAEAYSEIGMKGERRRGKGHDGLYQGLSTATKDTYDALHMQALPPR
Chain of VH3VL1-CD8ATD-CD137CSD-CD3zSSD fusion (chain, as listed by the source): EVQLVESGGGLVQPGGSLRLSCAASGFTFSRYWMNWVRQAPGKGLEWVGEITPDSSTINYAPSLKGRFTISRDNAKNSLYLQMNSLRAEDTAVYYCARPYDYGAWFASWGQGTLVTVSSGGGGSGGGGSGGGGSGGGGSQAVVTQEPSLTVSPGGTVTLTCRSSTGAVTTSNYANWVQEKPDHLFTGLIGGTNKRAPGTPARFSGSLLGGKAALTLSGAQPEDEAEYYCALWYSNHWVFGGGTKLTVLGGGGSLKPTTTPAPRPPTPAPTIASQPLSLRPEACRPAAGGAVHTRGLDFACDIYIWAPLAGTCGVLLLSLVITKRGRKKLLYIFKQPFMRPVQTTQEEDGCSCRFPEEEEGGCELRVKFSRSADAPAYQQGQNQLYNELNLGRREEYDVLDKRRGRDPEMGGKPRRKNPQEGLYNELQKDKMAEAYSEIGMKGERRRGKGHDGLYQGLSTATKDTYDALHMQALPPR
Chain of VH1VL1-CD8ATD-CD137CSD-CD3zSSD fusion (chain, as listed by the source): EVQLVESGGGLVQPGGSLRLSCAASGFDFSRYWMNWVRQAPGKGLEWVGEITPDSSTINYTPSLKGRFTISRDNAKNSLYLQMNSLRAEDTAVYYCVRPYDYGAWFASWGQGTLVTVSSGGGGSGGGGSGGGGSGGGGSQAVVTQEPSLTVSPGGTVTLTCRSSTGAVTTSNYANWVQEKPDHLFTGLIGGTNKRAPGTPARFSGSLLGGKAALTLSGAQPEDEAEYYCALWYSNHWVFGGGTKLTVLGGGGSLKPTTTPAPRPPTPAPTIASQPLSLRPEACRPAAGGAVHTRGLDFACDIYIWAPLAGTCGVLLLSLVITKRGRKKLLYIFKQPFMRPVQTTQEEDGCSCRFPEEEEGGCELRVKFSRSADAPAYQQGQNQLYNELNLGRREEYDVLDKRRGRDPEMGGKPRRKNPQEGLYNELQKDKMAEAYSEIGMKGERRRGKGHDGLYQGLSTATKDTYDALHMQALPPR

EC50 of Jurkat NFAT luciferase reporter activation (RLU/s), WSUDLCL2 target cells 5:1; drawn table, row 'VH1 x VL1'; x axis 'GA101 D246A P329G [nM]' [1]: 0.00814 nM | EC50 of Jurkat NFAT luciferase reporter activation (RLU/s), WSUDLCL2 target cells 5:1; drawn table, row 'VH2 x VL1'; x axis 'GA101 D246A P329G [nM]' [2]: 0.0104 nM | EC50 of Jurkat NFAT luciferase reporter activation (RLU/s), WSUDLCL2 target cells 5:1; drawn table, row 'VH3 x VL1'; x axis 'GA101 D246A P329G [nM]' [3]: 0.00582 nM | EC50 of Jurkat NFAT luciferase reporter activation (RLU/s), WSUDLCL2 target cells 5:1; drawn table, row 'VL1 x VH 3'; x axis 'GA101 D246A P329G [nM]' [4]: 0.00619 nM
Substance: anti-CD20 (GA101) D246A P329G IgG1 (antibody)

EC50 printed in the drawn table (row 'VH2 x VL1') for the Jurkat NFAT reporter assay with WSUDLCL2 cells and untargeted DP47 P329G LALA; the curve stays at background (about 60 to 90 RLU/s) [5]: 293 pM | EC50 printed in the drawn table (row 'VL1 x VH 3') for the Jurkat NFAT reporter assay with WSUDLCL2 cells and untargeted DP47 P329G LALA; the curve stays near background (about 60 to 110 RLU/s) [6]: 7420 pM
Substance: DP47 P329G LALA (antibody)

EC50 of Jurkat NFAT luciferase reporter activation (RLU/s), WSUDLCL2 target cells 5:1; drawn table, row 'VH1 x VL1' [7]: 8.1 pM | EC50 of Jurkat NFAT luciferase reporter activation (RLU/s), WSUDLCL2 target cells 5:1; drawn table, row 'VH2 x VL1' [8]: 6.93 pM | EC50 of Jurkat NFAT luciferase reporter activation (RLU/s), WSUDLCL2 target cells 5:1; drawn table, row 'VH3 x VL1' [9]: 7.57 pM | EC50 of Jurkat NFAT luciferase reporter activation (RLU/s), WSUDLCL2 target cells 5:1; drawn table, row 'VL1 x VH 3' [10]: 6.58 pM
Substance: anti-CD20 (GA101) P329G LALA IgG1 (antibody)
